Patent publication US20230159643A1 (H LUNDBECK A S, published 2023)

Assays:
Sortilin hSORTECDBAP = target: T1, Sortilin hSORTECDBAP (human, UniProt Q99523 78-755, biotinylated on the BAP tag by co-expression of biotin ligase); assay: BLI Octet 384RED, antibody on Protein A sensor, Sortilin construct in solution
T1 construct: Soluble extracellular region (ECD, aa 1-755) with BAP tag
T1 sequence: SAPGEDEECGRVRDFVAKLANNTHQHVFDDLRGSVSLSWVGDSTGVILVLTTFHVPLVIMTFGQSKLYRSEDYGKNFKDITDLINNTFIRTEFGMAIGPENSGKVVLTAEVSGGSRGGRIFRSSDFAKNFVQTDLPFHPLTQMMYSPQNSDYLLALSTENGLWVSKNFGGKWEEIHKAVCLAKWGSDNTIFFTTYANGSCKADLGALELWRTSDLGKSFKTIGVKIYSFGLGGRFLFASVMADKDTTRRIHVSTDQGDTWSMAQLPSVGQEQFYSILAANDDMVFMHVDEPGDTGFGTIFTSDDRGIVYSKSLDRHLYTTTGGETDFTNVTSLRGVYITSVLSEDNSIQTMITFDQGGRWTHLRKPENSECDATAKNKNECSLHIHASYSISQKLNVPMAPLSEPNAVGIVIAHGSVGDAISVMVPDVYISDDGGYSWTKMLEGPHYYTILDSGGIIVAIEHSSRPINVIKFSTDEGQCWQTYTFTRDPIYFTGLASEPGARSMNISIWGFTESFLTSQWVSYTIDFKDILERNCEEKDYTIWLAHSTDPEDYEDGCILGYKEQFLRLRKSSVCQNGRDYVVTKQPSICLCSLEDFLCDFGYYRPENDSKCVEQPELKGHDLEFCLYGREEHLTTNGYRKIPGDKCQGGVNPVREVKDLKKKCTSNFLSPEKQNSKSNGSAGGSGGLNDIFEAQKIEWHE
Experimental: (§1) Binding kinetics of anti-Sortilin HuMab antibodies to Sortilin were determined using Octet 384RED (Fortebio, Menlo Park, USA). HuMab solutions of 2 μg/ml were made by dilution in sample diluent (ForteBio, art. No. 18-5028). Prot A sensors (ForteBio, art. no. 18-0004) were prewetted with kinetics buffer (1:10 sample diluent in PBS) for at least 600 seconds. Subsequently sensors were immobilized with HuMab solution for 600 seconds. A baseline response was obtained by dipping in kinetics buffer for 120 seconds. Association of SORTECD constructs was performed during a 1000 seconds incubation. This was followed by dissociation in kinetics buffer for 100 seconds. After dissociation, sensors were regenerated (10 mM Glycine pH 1.0) and neutralized (kinetics buffer) 3 times for 5 seconds. […] A molecular weight of 76.8 kDA was used for SORTECDHis. Data was fitted with ForteBio Analysis 6.4 software, using a global full fit.

[1] = target: T2, Sortilin SORTECDBAP_hB12390 (human/tetraodon chimera); assay: as above
T2 construct: Shuffle construct
T2 chain: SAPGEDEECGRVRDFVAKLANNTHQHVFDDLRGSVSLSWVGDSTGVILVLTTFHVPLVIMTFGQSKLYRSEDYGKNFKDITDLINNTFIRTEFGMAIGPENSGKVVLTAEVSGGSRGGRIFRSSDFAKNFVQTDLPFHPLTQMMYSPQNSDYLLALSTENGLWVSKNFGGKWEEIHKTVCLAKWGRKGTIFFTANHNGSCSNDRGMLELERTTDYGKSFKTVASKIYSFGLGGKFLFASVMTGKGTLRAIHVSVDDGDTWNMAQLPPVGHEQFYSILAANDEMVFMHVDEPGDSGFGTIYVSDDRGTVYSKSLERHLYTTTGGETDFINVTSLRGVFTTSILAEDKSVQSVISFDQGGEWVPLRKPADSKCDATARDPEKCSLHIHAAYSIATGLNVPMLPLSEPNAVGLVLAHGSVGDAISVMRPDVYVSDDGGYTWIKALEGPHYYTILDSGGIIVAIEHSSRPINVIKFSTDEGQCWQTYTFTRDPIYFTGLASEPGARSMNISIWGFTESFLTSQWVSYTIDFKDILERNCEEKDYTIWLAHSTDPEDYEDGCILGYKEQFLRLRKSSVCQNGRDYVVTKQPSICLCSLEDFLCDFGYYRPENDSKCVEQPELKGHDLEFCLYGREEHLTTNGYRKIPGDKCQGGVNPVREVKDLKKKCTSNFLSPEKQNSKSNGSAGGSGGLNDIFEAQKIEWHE
Experimental: as §1

- EC50 (Sortilin hSORTECDBAP): 0.0191 µg/mL
- EC50 [1]: 0.0123 µg/mL
B1: 1320 (antibody, V domains shown)
VH: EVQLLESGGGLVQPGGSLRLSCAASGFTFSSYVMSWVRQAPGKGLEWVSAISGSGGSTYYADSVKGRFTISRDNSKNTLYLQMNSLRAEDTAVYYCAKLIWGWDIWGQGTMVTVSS
VL: EIVLTQSPATLSLSPGERATLSCRASQSVSSYLAWYQQRPGQAPRLLIYDASNRATGIPARFSGSGSGTDFTLSISSLEPEDFAVYYCQQRTNWSITFGQGTRLEIK
notes: also called IgG1-6003-1320; Antibody 1320
